The values that follow come from article PMC5220320 (Scientific Reports, 2017).

In data set [1] the target is T1, NDH-2 (type II NADH:quinone oxidoreductase) (Caldalkalibacillus thermarum, UniProt F5L3B8, G164E).
T1 construct: gene CathTA2_0279
T1 sequence (F5L3B8 1-399 G164E): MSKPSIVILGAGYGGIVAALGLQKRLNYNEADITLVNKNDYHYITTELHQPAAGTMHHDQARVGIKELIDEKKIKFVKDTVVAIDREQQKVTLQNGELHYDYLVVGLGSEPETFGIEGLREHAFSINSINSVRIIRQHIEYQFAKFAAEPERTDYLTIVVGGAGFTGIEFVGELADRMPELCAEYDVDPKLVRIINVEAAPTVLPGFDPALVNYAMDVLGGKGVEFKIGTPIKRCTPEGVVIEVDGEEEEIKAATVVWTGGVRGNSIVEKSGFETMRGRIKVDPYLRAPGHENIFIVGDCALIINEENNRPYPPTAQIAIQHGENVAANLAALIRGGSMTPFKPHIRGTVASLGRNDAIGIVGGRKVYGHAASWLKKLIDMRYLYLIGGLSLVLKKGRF
Nature of the data set: steady-state kinetics (KM); compromised binding, no CTC. It is filed as biochemical.

The target of data set [2] is T2, NDH-2 (type II NADH:quinone oxidoreductase) (Caldalkalibacillus thermarum, UniProt F5L3B8, I379E).
T2 construct: gene CathTA2_0279
T2 sequence (F5L3B8 1-399 I379E): T1 sequence (F5L3B8 1-399 G164E)
Nature of the data set: CTC formation by absorbance and stopped-flow flavin reduction. It is filed as binding.

The target of data set [3] is T3, NDH-2 (type II NADH:quinone oxidoreductase) (Caldalkalibacillus thermarum, UniProt F5L3B8).
T3 construct: gene CathTA2_0279
T3 sequence (F5L3B8 1-399): T1 sequence (F5L3B8 1-399 G164E)
Description: spectroscopic titration of reduced enzyme (CTC), upper limit for KD; co-crystal structure at […] Å. It is filed as binding.

Data set [4] concerns CC1=CC(=O)c2ccccc2C1=O. Nature of the data set: steady-state kinetics (KM); compromised binding. It is filed as biochemical, Caldalkalibacillus thermarum. As to conditions: FAD quinone-binding site; clashes with the side chain of E379.
Substrate in data set [5]: CC(=O)c1ccc[n+]([C@@H]2O[C@H](COP(=O)([O-])OP(=O)(O)OC[C@H]3O[C@@H](n4cnc5c(N)ncnc54)[C@H](O)[C@@H]3O)[C@@H](O)[C@H]2O)c1
Description: purified protein. As to conditions: FAD competes with NAD+ for the reduced flavin.

Substrate in data set [6]: NC(=O)C1=CN([C@@H]2O[C@H](COP(=O)(O)OP(=O)(O)OC[C@H]3O[C@@H](n4cnc5c(N)ncnc54)[C@H](O)[C@@H]3O)[C@@H](O)[C@H]2O)C=CC1
Description: purified protein. As to conditions: FAD nucleotide-binding site, nicotinamide ring juxtaposed over the flavin; E198 hydrogen bonds to the adenine ribose; F165 moves.

Substrate in data set [7]: CC1=CC(=O)c2ccccc2C1=O
Description: steady-state kinetics (KM) and stopped-flow flavin reoxidation. To be noted: FAD quinone-binding site on the opposite face of the flavin to the nucleotide-binding site; I379 at the entry. It is filed as biochemical, Caldalkalibacillus thermarum.

In the case of `NC(=O)C1=CN([C@@H]2O[C@H](COP(=O)(O)OP(=O)(O)OC[C@H]3O[C@@H](n4cnc5c(N)ncnc54)[C@H](O)[C@@H]3O)[C@@H](O)[C@H]2O)C=CC1` [NADH], the Km in data set [1] is more than 1000 µM. In data set [2], the “CTC formation by absorbance and stopped-flow flavin reduction” value was “When oxidized I379E reacts with NADH, the flavin is reduced and a CTC forms, as in the WT enzyme”. Molecule `NC(=O)c1ccc[n+]([C@@H]2O[C@H](COP(=O)([O-])OP(=O)(O)OC[C@H]3O[C@@H](n4cnc5c(N)ncnc54)[C@H](O)[C@@H]3O)[C@@H](O)[C@H]2O)c1` [NAD^+] registered a Kd in data set [3] of less than 2 µM. As for “NDH-2 (type II NADH:quinone oxidoreductase) (Caldalkalibacillus thermarum TA2.A1; I379E)”, the Km in data set [4] worked out at 780 µM.

B1: NDH-2 (type II NADH:quinone oxidoreductase) (Caldalkalibacillus thermarum TA2.A1) (protein)
chain: T1 sequence (F5L3B8 1-399 G164E)
As for B1, the Km stood at 7.2 µM in data set [5], 29 µM in data set [6] and 34 µM in data set [7].

One may read the Km as the concentration of substrate that gives half-maximal velocity. A word on the Kd: it is a measure of binding affinity in units of concentration. Read a high Kd as weaker binding.
